Source: publication PMC9484259

Legend:
Assay in all cases: BLI; Forte Bio Octet; biotinylated Mm IgG or Fc captured on streptavidin SAX 2.0 tips, FcγRIII in solution in 3-fold serial dilutions (10 mM to 0.013 mM [sic]), PBST (0.05% Tween-PBS), 300 s association and 300 s dissociation; KD from equilibrium fits, average of two independent experiments; the footnote of Table 1 says SPR
[1] = molecular target: Mm IgG3 (Macaca mulatta (rhesus macaque))
[2] = molecular target: Mm IgG2 (Macaca mulatta (rhesus macaque))
[3] = molecular target: Fc of Mm IgG4 (Macaca mulatta (rhesus macaque))
[4] = molecular target: Mm IgG1 (Macaca mulatta (rhesus macaque))
[5] = molecular target: Mm IgG4 (Macaca mulatta (rhesus macaque))
[6] = molecular target: Fc of Mm IgG2 (Macaca mulatta (rhesus macaque))
[7] = molecular target: macaque immunoglobulin IgG1 Fc (residues 237-447) (Macaca mulatta (rhesus macaque))
[8] = molecular target: Fc of Mm IgG3 (Macaca mulatta (rhesus macaque))

Row | Kd [1] [nM] | Kd [2] [nM] | Kd [3] [nM] | Kd [4] [nM] | Kd [5] [nM] | Kd [6] [nM] | Kd [7] [nM] | Kd [8] [nM] | Substance
1 | 1900 | 1500 | 1100 | 220 | 490 | 150 | 210 | 290 | Mm FcγRIII(Ile^158), fully glycosylated, Man5 glycans (from UniProt A3RFZ7 21-206) (receptor)
2 | 2300 | 1800 | 530 | 280 | 300 | 80 | 300 | 240 | Mm FcγRIII(Val^158), fully glycosylated, Man5 glycans (receptor)
3 | 3000 | 2800 | 1900 | 280 | 1700 | 1500 | 60 | 160 | Mm FcγRIII(Ile^158), partial glycosylation (Asn^38 and Asn^169 glycans removed), Man5 glycans (receptor)
4 | 4800 | 2200 | 850 | 290 | 2200 | 610 | 10 | 280 | Mm FcγRIII(Val^158), partial glycosylation (Asn^38 and Asn^169 glycans removed), Man5 glycans (receptor)
5 | 4200 | 2600 | 1000 | 460 | 3000 | 1200 | 30 | 250 | Mm FcγRIII(Val^158), partial glycosylation (Asn^38 and Asn^169 glycans removed), complex glycans (receptor)
6 | 3200 | 2100 | 630 | 410 | 570 | 90 | 360 | 460 | Mm FcγRIII(Val^158), fully glycosylated, complex glycans (receptor)
7 | 1900 | 1800 | 1800 | 260 | 980 | 230 | 250 | 400 | Mm FcγRIII(Ile^158), fully glycosylated, complex glycans (from UniProt A3RFZ7 21-206) (receptor)
8 | 2800 | 2300 | 2200 | 340 | 2300 | 1600 | 120 | 230 | Mm FcγRIII(Ile^158), partial glycosylation (Asn^38 and Asn^169 glycans removed), complex glycans (receptor)
